{"source": "patent US20230190883A1", "about": "“STABLE PEPTIDES HAVING RENALASE AGONIST ACTIVITY” (Bessor Pharma, LLC, priority 2020, published 2023)", "molecules": {"B1": {"name": "Renalase: RNLS is a 37 kD secretory protein that is primarily made by kidney proximal renal tubules cells (protein, UniProt Q5VYX0 18-342, looked up)", "Renalase": "ALLRRQTSGPLYLAVWDKAEDSGGRMTTACSPHNPQCTADLGAQYITCTPHYAKKHQRFYDELLAYGVLRPLSSPIEGMVMKEGDCNFVAPQGISSIIKHYLKESGAEVYFRHRVTQINLRDDKWEVSKQTGSPEQFDLIVLTMPVPEILQLQGDITTLISECQRQQLEAVSYSSRYALGLFYEAGTKIDVPWAGQYITSNPCIRFVSIDNKKRNIESSEIGPSLVIHTTVPFGVTYLEHSIEDVQELVFQQLENILPGLPQPIATKCQKWRHSQVTNAAANCPGQMTLHHKPFLACGGDGFTQSNFDGCITSALCVLEALKNYI"}}, "test_system": "carrageenan-induced Paw edema", "experiment": "carrageenan-induced paw edema (CPE) model in mice", "assay_type": "in vivo, CD-1 mice", "conditions": "3 mpk", "text": "This test is a rapid in vivo model for evaluation of anti-inflammatory efficacy of test articles. The CPE model in mice quantitativdy assesses inhibition of edema enduced by subplantarinjection of carrageenan. […] Carrageenan-induced inflammation invoves extravasation of polymorphonuclear leukocytes from circulation to the site of inflammation. The subsequent release of myeloperoxidase and other cytokines within the interstitial tissues results in plasma exudation into the site of inflammation. The increased paw volume is measured by water displacement. Anti-inflammatory drugs reduce the paw edema.\n• 1. Receive (SOP 1910, SOP 1920) and quarantine (SOP 560) 125 CD-1 mice (Charles River Laboratories, male, 5-6 weeks old). • 2. Animals are ear tagged (SOP 810), weighed, and sorted into 9 groups with 10 animals/group and 5 groups of 7 animals/group based upon average body weight. • 3. Prepare 3% carrageenan solution: • 1) Preparation at least 2 weeks in advance of use. • 2) Weigh out 600 mg A-carrageenan into a glass beaker. • 3) Add 20 ml deionized water. • 4) Stir on mild heat until carrageenan fully dissolved. • 5) Cool solution to ambient temperature. • 6) Store at 4-8° C. • 4. Until the day of use the renalase peptides are stored at -20° C. as dry powder. • 5. DAY 0 • a. Prepare test material in sterile saline (vehicle). • b. On the day of dosing, renalase peptides are dissolved. • c. On day prior to administration check carrageenan solution for clarity (no visible evidence of contamination). • 1) Equilibrate carrageenan to ambient temperature. • d. Record mouse weights in laboratory notebook. • e. Measure and record paw initial paw volumes: • 1) Place beaker of water on balance and tare to zero. • 2) Place right hind limb in the beaker of water on the scale with the top of the hock centered in the meniscus of the water. Record read-out on the scale. • 3) The foot must be dried after each measurement as wet feet will change the readout. • 4) Re-tare the scale between measurements to account for decrease in water volume. • f. […]\nThe test was also conducted to compare the inhibition of inflammation by peptide 10 as compared to the corresponding peptide fragment without the alanine substitution at position 220 (peptide 81).", "note": "Marks after values point to notes of the source that are not given here."}
{"molecule": "B1", "values": [{"measurement": "percent change from control, paw edema, 2 hr after carrageenan", "setting": "2 hr after carrageenan", "value": "60.1* percent"}, {"measurement": "percent change from control, paw edema, 4 hr after carrageenan", "setting": "4 hr after carrageenan", "value": "35.3* percent"}, {"measurement": "percent change from control, paw edema, 6 hr after carrageenan", "setting": "6 hr after carrageenan", "value": 4.5, "unit": "%"}, {"measurement": "percent change from control, paw edema, 10 hr after carrageenan", "setting": "10 hr after carrageenan", "value": 23.7, "unit": "%"}]}
